Experimental data published in patent US20250312491A1, “BASE EDITING OF TRANSTHYRETIN GENE” (Beam Therapeutics Inc., priority 2022, published 2025).
Oligonucleotides are written 5' to 3', each unit as a sugar letter and its base; * is a phosphorothioate linkage, no mark a phosphodiester; rarer units and linkages stand in square brackets, end groups in braces. Plain capitals give the bases only. m = 2'-O-methyl; r = 2'-OH (RNA)

T1: Asialoglycoprotein receptor (ASGP-R) (Homo sapiens, UniProt P07306)
T1 sequence (P07306 1-291): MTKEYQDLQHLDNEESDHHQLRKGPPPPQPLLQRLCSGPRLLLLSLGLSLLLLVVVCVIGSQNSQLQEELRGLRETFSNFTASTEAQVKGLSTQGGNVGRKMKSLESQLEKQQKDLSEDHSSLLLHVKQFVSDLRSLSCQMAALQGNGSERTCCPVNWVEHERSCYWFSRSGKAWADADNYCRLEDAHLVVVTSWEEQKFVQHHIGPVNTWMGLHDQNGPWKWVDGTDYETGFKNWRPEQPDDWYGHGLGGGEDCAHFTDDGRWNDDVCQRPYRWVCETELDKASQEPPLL
T1 sequence (P07307 1-311 partner): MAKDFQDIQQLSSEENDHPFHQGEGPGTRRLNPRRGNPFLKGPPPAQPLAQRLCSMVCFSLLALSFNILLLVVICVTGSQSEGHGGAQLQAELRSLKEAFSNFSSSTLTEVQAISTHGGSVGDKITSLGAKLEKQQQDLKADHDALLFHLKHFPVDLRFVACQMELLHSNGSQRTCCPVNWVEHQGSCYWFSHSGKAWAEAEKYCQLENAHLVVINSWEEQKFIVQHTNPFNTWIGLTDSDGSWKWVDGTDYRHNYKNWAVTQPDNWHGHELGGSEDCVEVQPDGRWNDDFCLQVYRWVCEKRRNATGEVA


Columns and labels:
[1] = target: T1, Asialoglycoprotein receptor (ASGP-R); conditions: ligand: N-acetylgalactosamine (GalNAc); cited from earlier work
TTR on-target site = test: Off-target validation in human primary hepatocytes: on-target site editing; assay type: cell-based; conditions: for on-target site editing efficiency (in words): treated vs control groups, human primary hepatocytes
Experimental: (§2) Several candidate off-target sites were analyzed for off-target editing in human primary hepatocytes.

[2] = system: cynomolgus monkey TTR gene; test: Base editing in primary cynomolgus hepatocytes transfected with gRNA and ABE8.8 mRNA, NGS; assay type: cell-based; conditions: for Cyno hepatocytes- Editing % 156.25: 156.25 ng/RNA/mL; for Cyno hepatocytes- Editing % 312.5: 312.5 ng/RNA/mL; for Cyno hepatocytes- Editing % 625: 625 ng/RNA/mL; for Cyno hepatocytes- Editing % 1250: 1250 ng/RNA/mL; for Cyno hepatocytes- Editing % 2500: 2500 ng/RNA/mL; for Cyno hepatocytes- Editing % 5000: 5000 ng/RNA/mL; for editing activity in cynomolgus primary hepatocytes (in words): ABE8.8 mRNA co-transfection
Excerpt: (§1) The mRNA, and corresponding amino acid, sequence of the ABE8.8 (MA004) used in shown below in Table 11. Three days after transfection, genomic DNA was harvested from the hepatocytes, and assessed for base editing with next-generation sequencing of PCR amplicons generated around the target splice site. […] See FIGS. 5A-5C, FIG. 6, and Tables 2-3.

human TTR gene = test: Base editing in primary human hepatocytes co-transfected with gRNA and ABE8.8 mRNA, NGS; assay type: cell-based; conditions: for Human hepatocytes- Editing % 625, rep 1 / Human hepatocytes- Editing % 625, rep 2: 625 ng/RNA/mL; for Human hepatocytes- Editing % 625, rep 1 / Human hepatocytes- Editing % 1250, rep 1 / Human hepatocytes- Editing % 2500, rep 1: rep 1, 3 days after transfection; for Human hepatocytes- Editing % 625, rep 2 / Human hepatocytes- Editing % 1250, rep 2 / Human hepatocytes- Editing % 2500, rep 2: rep 2, 3 days after transfection; for Human hepatocytes- Editing % 1250, rep 1 / Human hepatocytes- Editing % 1250, rep 2: 1250 ng/RNA/mL; for Human hepatocytes- Editing % 2500, rep 1 / Human hepatocytes- Editing % 2500, rep 2: 2500 ng/RNA/mL; for editing activity in human primary hepatocytes (in words): ABE8.8 mRNA co-transfection
Excerpt: With this example, gRNA sequences were identified that permit ABE8.8 (and other ABE variants containing Streptococcus pyogenes Cas9, such as ABE7.10, or another Cas protein that can use the NGG PAM) to either: 1) disrupt the start codon, or 2) disrupt splice sites, whether donors or acceptors, via A→G editing within its editing window (roughly positions 4 to 7 in the 20-nt protospacer region of DNA). Five sequences were identified throughout the human TTR gene (Table 1). gRNAs were synthesized matching each of the protospacer sequences and otherwise conforming to the standard 100-nt Streptococcus pyogenes CRISPR gRNA sequence, with each gRNA molecule having a minimal degree of chemical modifications (specified in Table 1).
as §1

[3] = system: candidate off-target sites; test: Off-target validation in human primary hepatocytes: candidate off-target site editing; assay type: cell-based
Experimental: With a view towards establishing the safety of a base-editing therapy knocking down of TTR in the human liver in vivo, off-target mutagenesis analysis is assessed in primary human hepatocytes. […] The in vitro biochemical assay ONE-seq was used to generate a list of candidate off-target sites and to determine the propensity of a ribonucleoprotein comprising the ABE8.8 base editor protein and each of the three protospacer guides sequences (GA457, GA460, and GA461) to cleave oligonucleotides in a library.
For each site, the total number of edited reads was normalized to the total number of edited reads assigned to the on-target site, and this ratio defines the ONE-seq score for the site. Sites were ranked by ONE-seq score, and those with a score equal to or larger than 0.001, were selected for validation. A score equal to or larger than 0.001 encompasses sites that have down to 1000-fold less editing activity in the biochemical assay compared to editing of the on-target site. This threshold is based on the premise that in cells, if there is 100% on-target editing, 1/1000-fold less editing activity would translate to <0.1% off-target editing, which falls below the lower limit of detection of editing by NGS.
as §2

TTR gene = test: GA521 dose response base editing in primary human hepatocytes, NGS; assay type: cell-based; conditions: MessengerMax transfection, various doses total RNA (ng/ml), 3 days
Excerpt: Exemplary guide RNA GA521 was transfected into primary human hepatocytes using MessengerMax transfection. GA521 disrupts the start codon AUG of the TTR gene by editing it to ACG with an A-to-G base editor (e.g., ABE8.8; ABE8.8-m).
Three days after transfection, genomic DNA was harvested from the hepatocytes, and assessed for base editing with next-generation sequencing of PCR amplicons generated around the target splice site.
FIG. 29 depicts dose response for human gRNA GA521 in primary human hepatocytes. Percent base editing at various doses (ng/ml) total RNA was determined from NGS analysis. GA521 was the guide RNA.

[4] = GA457 site OT29 GACATCCTGTCAAGGATCAG
[5] = GA457 site OT31 GCCATAAGCCAAAGAATGAC
[6] = GA459 On-target GCAACTTACCCAGAGGCAAA
[7] = GA460 On-target TATAGGAAAACCAGTGAGTC

Molecule	on-target site editing efficiency (in words) (TTR on-target site)	Cyno hepatocytes- Editing % 156.25 [2] [%]	Cyno hepatocytes- Editing % 312.5 [2] [%]	Cyno hepatocytes- Editing % 625 [2] [%]	Cyno hepatocytes- Editing % 1250 [2] [%]	Cyno hepatocytes- Editing % 2500 [2] [%]	Cyno hepatocytes- Editing % 5000 [2] [%]	editing activity in cynomolgus primary hepatocytes (in words) [2]	Human hepatocytes- Editing % 625, rep 1 (human TTR gene) [%]	Human hepatocytes- Editing % 625, rep 2 (human TTR gene) [%]	Human hepatocytes- Editing % 1250, rep 1 (human TTR gene) [%]	Human hepatocytes- Editing % 1250, rep 2 (human TTR gene) [%]	Human hepatocytes- Editing % 2500, rep 1 (human TTR gene) [%]	Human hepatocytes- Editing % 2500, rep 2 (human TTR gene) [%]	editing activity in human primary hepatocytes (in words) (human TTR gene)	off-target editing at candidate off-target sites (in words) ([3]; human primary hepatocytes)	other results
CC(=O)NC1O[C@H](CO)[C@H](O)[C@H](O)[C@H]1O (stereo partly drawn) [N-Acetyl-D-Galactosylamine]	–	–	–	–	–	–	–	–	–	–	–	–	–	–	–	–	affinity for ASGP-R relative to D-Gal [1]: 50 fold
GA461: guide RNA, human/cyno TTR, protospacer TACTCACCTCTGCATGCTCA (SEQ ID NO: 27), gRNA SEQ ID NO: 15 (nucleic acid, chemistry not given here) guide: TACTCACCTCTGCATGCTCAGTTTTAGAGCTAGAAATAGCAAGTTAAAATAAGGCTAGTCCGTTATCAACTTGAAAAAGTGGCACCGAGTCGGTGCTTTT	high editing efficiency	0.07	7.45	13.16	19.46	29.8	37.53	high editing activity	21.81	22.31	32.82	32.38	40.42	39.43	high editing activity	little to no off-target editing	SUM Editing %-Human Primary Hepatocytes Treat rep 2 (TTR on-target site; GA461 On-target TACTCACCTCTGCATGCTCA): 58.9%
GA457: guide RNA, human TTR, protospacer GCCATCCTGCCAAGAATGAG (SEQ ID NO: 24), gRNA SEQ ID NO: 11 (nucleic acid, chemistry not given here) guide: GCCATCCTGCCAAGAATGAGGTTTTAGAGCTAGAAATAGCAAGTTAAAATAAGGCTAGTCCGTTATCAACTTGAAAAAGTGGCACCGAGTCGGTGCTTTT	high editing efficiency	–	–	–	–	–	–	–	17.24	15.39	26.49	24.86	33.96	31.31	high editing activity	–	% Editing-human primary hepatocytes Treated (TTR on-target site; GA457 On-target GCCATCCTGCCAAGAATGAG): 54.21%; % Editing-human primary hepatocytes Net (TTR on-target site; GA457 On-target GCCATCCTGCCAAGAATGAG, treated minus untreated): 54.1%; net editing at all off-target sites ([3]; 47 candidate off-target sites, human primary hepatocytes): less than 0.4%; % Editing-human primary hepatocytes Net ([3]; GA457 site OT3 GCCATACCTGCCATGAATGAG): 0.01%; % Editing-human primary hepatocytes Net [3, 4]: 0.05%; % Editing-human primary hepatocytes Treated [3, 4]: 0.21%; % Editing-human primary hepatocytes Net [3, 5]: 0.09%; % Editing-human primary hepatocytes Treated [3, 5]: 0.09%
GA521: modified guide RNA, human TTR, GA457 spacer with 2′-O-methyl modified tracr, SEQ ID NO: 11 (nucleic acid, chemistry not fully specified) guide: GCCATCCTGCCAAGAATGAGGTTTTAGAGCTAGAAATAGCAAGTTAAAATAAGGCTAGTCCGTTATCAACTTGAAAAAGTGGCACCGAGTCGGTGCTTTT	–	–	–	–	–	–	–	–	–	–	–	–	–	–	–	–	percent base editing in primary human hepatocytes (TTR gene): greater than 40%
GA458: guide RNA, cyno TTR, protospacer GCCATCCTGCCAAGAACGAG (SEQ ID NO: 28), gRNA SEQ ID NO: 29; cynomolgus equivalent of GA457 (nucleic acid) guide: mG*mC*mC*rArUrCrCrUrGrCrCrArArGrArArCrGrArGrGrUrUrUrUrArGrArGrCrUrArGrArArArUrArGrCrArArGrUrUrArArArArUrArArGrGrCrUrArGrUrCrCrGrUrUrArUrCrArArCrUrUrGrArArArArArGrUrGrGrCrArCrCrGrArGrUrCrGrGrUrGrCrU*mU*mU*mU	–	6.06	10.65	16.07	22.74	27.25	35.91	high editing activity	–	–	–	–	–	–	–	–	–
GA459: guide RNA, human TTR, protospacer GCAACTTACCCAGAGGCAAA (SEQ ID NO: 25), gRNA SEQ ID NO: 13 (nucleic acid, chemistry not given here) guide: GCAACTTACCCAGAGGCAAAGTTTTAGAGCTAGAAATAGCAAGTTAAAATAAGGCTAGTCCGTTATCAACTTGAAAAAGTGGCACCGAGTCGGTGCTTTT	high editing efficiency	–	–	–	–	–	–	–	3.79	3.89	5.46	6.15	8.5	8.69	–	little to no off-target editing	SUM Editing %-Human Primary Hepatocytes Treat rep 1 (TTR on-target site; [6]): 14.17%; SUM Editing %-Human Primary Hepatocytes Treat rep 2 (TTR on-target site; [6]): 14.29%
GA460: guide RNA, human/cyno TTR, protospacer TATAGGAAAACCAGTGAGTC (SEQ ID NO: 26), gRNA SEQ ID NO: 14 (nucleic acid, chemistry not given here) guide: TATAGGAAAACCAGTGAGTCGTTTTAGAGCTAGAAATAGCAAGTTAAAATAAGGCTAGTCCGTTATCAACTTGAAAAAGTGGCACCGAGTCGGTGCTTTT	high editing efficiency	1.62	11.22	18.44	31.71	38.25	40.16	high editing activity	23.77	22.27	38.33	35.8	47.61	47.79	high editing activity	little to no off-target editing	SUM Editing %-Human Primary Hepatocytes Treat rep 1 (TTR on-target site; [7]): 76.4%; SUM Editing %-Human Primary Hepatocytes Treat rep 2 (TTR on-target site; [7]): 74.3%
